From patent US20190092852A1 (Genentech, published 2019) come the findings set out here.

The target in one assay is T1, cyno IL-33 N-His (cynomolgus monkey).
T1 chain: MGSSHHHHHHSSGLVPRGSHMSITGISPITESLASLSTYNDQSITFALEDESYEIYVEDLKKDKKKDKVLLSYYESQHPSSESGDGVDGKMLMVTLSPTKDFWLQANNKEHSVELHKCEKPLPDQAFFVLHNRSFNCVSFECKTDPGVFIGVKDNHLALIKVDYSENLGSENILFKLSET
The assay is described as follows: SPR Biacore T200, 37 C. Put shortly: (§1)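 Antibodies captured via anti-Fc on CM5 chip; IL-33 injected at 3.7–100 nM (three-fold series), 4 min association, 10 min dissociation, 30 μl/min, ADA pH 7.4 buffer with 0.15 M NaCl, EDTA, Tween-20, at 25 °C or 37 °C. KD = koff/kon from 1:1 Langmuir fit; t1/2 = ln(2)/(60*koff).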

Assay [1] addresses T2, human IL-33 (R&D Systems, #3625-IL-010/CF) (human, UniProt O95760 112-270).
T2 construct: also called hIL-33; huIL-33
T2 sequence (looked up): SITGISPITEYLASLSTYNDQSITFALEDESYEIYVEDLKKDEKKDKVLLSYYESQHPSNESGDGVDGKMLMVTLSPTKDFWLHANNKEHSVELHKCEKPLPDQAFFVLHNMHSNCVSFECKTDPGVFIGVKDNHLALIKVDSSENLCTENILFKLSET
The assay is described as follows: SPR Biacore T200, 37 C. Put shortly:
as §1

Assay [2] has as its target T2, human IL-33 (R&D Systems, …). The assay can be described thus: cell-based or functional assay.
Another assay addresses T3, biotinylated human IL-33 (human, UniProt O95760 112-270, biotin-labeled with EZ-LINK NHS-PEG4-Biotin).
T3 construct: also called biotin-huIL-33
T3 sequence (looked up): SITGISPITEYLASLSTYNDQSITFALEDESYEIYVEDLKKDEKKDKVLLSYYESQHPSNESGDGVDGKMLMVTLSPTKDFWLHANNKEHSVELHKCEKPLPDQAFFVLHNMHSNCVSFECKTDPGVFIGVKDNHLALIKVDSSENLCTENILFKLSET
The assay is described as follows: competitive ELISA, biotin-huIL-33 to coated hST2-Fc.

In assay [3] the target is T2, human IL-33 (R&D Systems, …). The assay is described as follows: cell-based or functional assay. The source holds these as a separate data set.
For assay [4] the target is unchanged. The assay is described as follows: cell-based or functional assay. This is another data set of the same source.
A further assay concerns the target T4, biotinylated cyno IL-33 (cynomolgus monkey, UniProt A0A2K5W3I1 112-269, biotin-labeled with EZ-LINK NHS-PEG4-Biotin).
T4 construct: also called biotin-cyIL-33
T4 sequence: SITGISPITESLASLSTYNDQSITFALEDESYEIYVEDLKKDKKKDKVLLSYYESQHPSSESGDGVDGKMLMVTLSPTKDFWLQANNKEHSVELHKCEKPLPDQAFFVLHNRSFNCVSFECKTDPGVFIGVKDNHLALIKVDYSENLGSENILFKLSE
The assay is described as follows: competitive ELISA, biotin-cyIL-33 to coated hST2-Fc. The essentials: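 Recombinant human ST2-Fc coated at 1 μg/ml; biotin-IL-33 (final 20 pM human, 45 pM cyno) premixed 1 h RT with serially diluted antibody (0–300 nM final), then bound to ST2-Fc 1 h RT. Streptavidin-polyHRP/TMB, A450; IC₅₀ from four-parameter fit, max blocking relative to IL-33-alone signal minus background.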

B1: 10C12.38.H6.87Y.58I IgG4 (antibody, V domains shown)
VH: EVQLVESGGGLVQPGGSLRLSCAASGFTFSSFSMSWVRQAPGKGLEWVATISGGKTFTDYVDSVKGRFTISRDDSKNTLYLQMNSLRAEDTAVYYCTRANYGNWFFEVWGQGTLVTVSS
VL: EIVLTQSPATLSLSPGERATLSCRASESVAKYGLSLLNWFQQKPGQPPRLLIFAASNRGSGIPARFSGSGSGTDFTLTISSLEPEDFAVYYCQQSKEVPFTFGQGTKVEIKR
notes: also called anti-IL33 10C12.38.H6.87Y.58I IgG4
In the assay with cyno IL-33 N-His, B1 had a Kd of 0.476 nM, a koff of 0.000804 s⁻¹, a kon of 1.69e+06 M⁻¹ s⁻¹ and a t1/2 of 14 min. Also, in assay [1], the Kd amounted to 0.0889 nM, the koff was 0.000547 s⁻¹, the kon came out at 6.16e+06 M⁻¹ s⁻¹ and the t1/2 turned out to be 21 min. Also, in assay [2], the “Ph-p38 MFI at 0.4 nM Ab (500 pM human IL-33, primary basophils)” value stood at 34 MFI. Moreover, in the assay with biotinylated human IL-33, the IC50 was 0.021 nM and the “Maximum Blocking” value amounted to 92%. Further, in assay [3], the “IC50; IFN-gamma ELISA, primary human NK cells, 260 pM hIL-33 + IL-12” value worked out at 3.3e-11 M. Moreover, in assay [4], the “Ph-p38 MFI at 2 nM Ab (500 pM human IL-33, primary basophils)” value is 23 MFI. In addition, in the assay with biotinylated cyno IL-33, the IC50 turned out to be 0.43 nM and the “Maximum Blocking” value was found to be 87%.

B2: H4H9659P (antibody, IgG4, V domains shown)
VH: QVQLVQSGAEVKKPGASVKVSCKASGYTFNSYGISWVRQAPGQGLEWMGWISSHNGNSHYVQKFQGRVSMTTDTSTSTAYMELRSLRSDDTAVYYCARHSYTTSWYGGFDYWGQGTLVTVSS
VL: DIQMTQSPSSVSASVGDRVTITCRASQGFSSWLAWYQQKPGKAPQLLIYAASSLQSGVPSRFSGSGSGSDFTLTISSLQPEDFATYYCQQANSFPLTFGGGTKVEIK
notes: also called RG7
Turning to B2, in the assay with cyno IL-33 N-His, the Kd came to 4.13 nM, the koff amounted to 0.00114 s⁻¹, the kon came to 277000 M⁻¹ s⁻¹ and the t1/2 is 10 min. In assay [1], this molecule showed a Kd of 0.462 nM, a koff of 0.000498 s⁻¹, an association rate constant (kon) of 1.08e+06 M⁻¹ s⁻¹ and a t1/2 of 23 min. Further, in assay [2], the “Ph-p38 MFI at 0.4 nM Ab (500 pM human IL-33, primary basophils)” value was found to be 119 MFI. In addition, in the assay with biotinylated human IL-33, the IC50 was found to be 0.23 nM and the “Maximum Blocking” value was 88%. Also, the “IC50; IFN-gamma ELISA, primary human NK cells, 260 pM hIL-33 + IL-12” value in assay [3] amounted to 5.1e-10 M. Besides, in assay [4], the “Ph-p38 MFI at 2 nM Ab (500 pM human IL-33, primary basophils)” value is 49 MFI. Also, in the assay with biotinylated cyno IL-33, the IC50 was determined as 47 nM and the “Maximum Blocking” value turned out to be 42%.
